These results are taken from patent US20160051652A1 (INTERNATIONAL INSTITUTE OF CANCER IMMUNOLOGY, published 2016).

To fix the notation:
T1: human HLA-A*0201 molecule (human, UniProt P04439 25-302 at identity 0.94))
T1 construct: whole, on cells; MHC class I molecule on the surface of T2-0201 cells; also called HLA-A0201 class I molecule
T1 MHC heavy: not shown

B1: eEF2292-300 peptide (peptide)
peptide: LILDPIFKV
notes: Synthesized 9-residue peptide of eEF2; also called candidate peptide number 1
B2: eEF2519-527 peptide (peptide)
peptide: KLVEGLKRL
notes: Synthesized 9-residue peptide of eEF2; also called candidate peptide number 3
B3: eEF2671-679 peptide (peptide)
peptide: YLNEIKDSV
notes: Synthesized 9-residue peptide of eEF2; also called candidate peptide number 4
B4: eEF2739-747 peptide (peptide)
peptide: RLMEPIYLV
notes: Synthesized 9-residue peptide of eEF2; also called candidate peptide number 2
B5: eEF2284-292 peptide (peptide)
peptide: KLPRTFCQL
notes: Synthesized 9-residue peptide of eEF2; also called candidate peptide number 7
B6: eEF2394-402 peptide (peptide)
peptide: LMMYISKMV
notes: Synthesized 9-residue peptide of eEF2; also called candidate peptide number 6
B7: eEF2661-669 peptide (peptide)
peptide: ILTDITKGV
notes: Synthesized 9-residue peptide of eEF2; also called candidate peptide number 5
B8: eEF2292-300 2L peptide (peptide)
peptide: LLLDPIFKV
notes: Modified-type peptide
B9: eEF2292-300 2M peptide (peptide)
peptide: LMLDPIFKV
notes: Modified-type peptide
B10: eEF2292-300 2L9L peptide (peptide)
peptide: LLLDPIFKL
notes: Modified-type peptide
B11: eEF2292-300 2M9L peptide (peptide)
peptide: LMLDPIFKL
notes: Modified-type peptide

In one assay the target is T1, human HLA-A*0201 molecule. As to the kind of experiment: MHC stabilization assay, T2-0201 cells, flow cytometry of surface HLA-A0201. The text has this:
(§1) Next, a binding ability to an HLA-A0201 molecule was actually analyzed by an MHC stabilization assay.
For orientation: In flow cytometry, cells or beads pass a laser one at a time.
For B1, the “% MFI increase” value amounted to 183%.

The target in the next assay is T1, human HLA-A*0201 molecule. As to the kind of experiment: binding assay (stabilization assay), T2-0201 cells, flow cytometry.
Text: as §1
Regarding B1, the “% MIF increase” value came out at 269%.

The next assay has as its target T1, human HLA-A*0201 molecule. As to the kind of experiment: MHC stabilization assay, T2-0201 cells, flow cytometry of surface HLA-A0201 (non-peptide 275.7).
Text: as §1
With B2, the MFI worked out at 438.
B3: the MFI was 523.
Molecule B1 returned an MFI of 781.
In turn, B4 displayed an MFI of 665.
The same measure, in the same setting: for B5 the value was 449; for B6, 448.
B7 showed an MFI of 828.

In a further assay the target is T1, human HLA-A*0201 molecule. As to the kind of experiment: binding assay (stabilization assay), T2-0201 cells, flow cytometry (non-peptide 84.50).
Text: as §1
On to B8, for which the MIF was determined as 339.
Molecule B9 gave an MIF of 313.
As to B10, the MIF turned out to be 319.
In the case of B11, the MIF amounted to 275.
B1 registered an MIF of 312.
